Assay results from patent US7160981B2, “Peptide antagonists of DP transcription factors” (Prolifix Limited, priority 1996, dated 2007).
“Also recorded” adds a separate entry of the source.

T1: pRb / adenovirus E1a protein interaction (Homo sapiens, UniProt P06400)
T1 construct: GST; made in house; host or cells: pRb fusion purified on glutathione Sepharose; E1a made by in vitro translation
T1 sequence (P06400 1-928): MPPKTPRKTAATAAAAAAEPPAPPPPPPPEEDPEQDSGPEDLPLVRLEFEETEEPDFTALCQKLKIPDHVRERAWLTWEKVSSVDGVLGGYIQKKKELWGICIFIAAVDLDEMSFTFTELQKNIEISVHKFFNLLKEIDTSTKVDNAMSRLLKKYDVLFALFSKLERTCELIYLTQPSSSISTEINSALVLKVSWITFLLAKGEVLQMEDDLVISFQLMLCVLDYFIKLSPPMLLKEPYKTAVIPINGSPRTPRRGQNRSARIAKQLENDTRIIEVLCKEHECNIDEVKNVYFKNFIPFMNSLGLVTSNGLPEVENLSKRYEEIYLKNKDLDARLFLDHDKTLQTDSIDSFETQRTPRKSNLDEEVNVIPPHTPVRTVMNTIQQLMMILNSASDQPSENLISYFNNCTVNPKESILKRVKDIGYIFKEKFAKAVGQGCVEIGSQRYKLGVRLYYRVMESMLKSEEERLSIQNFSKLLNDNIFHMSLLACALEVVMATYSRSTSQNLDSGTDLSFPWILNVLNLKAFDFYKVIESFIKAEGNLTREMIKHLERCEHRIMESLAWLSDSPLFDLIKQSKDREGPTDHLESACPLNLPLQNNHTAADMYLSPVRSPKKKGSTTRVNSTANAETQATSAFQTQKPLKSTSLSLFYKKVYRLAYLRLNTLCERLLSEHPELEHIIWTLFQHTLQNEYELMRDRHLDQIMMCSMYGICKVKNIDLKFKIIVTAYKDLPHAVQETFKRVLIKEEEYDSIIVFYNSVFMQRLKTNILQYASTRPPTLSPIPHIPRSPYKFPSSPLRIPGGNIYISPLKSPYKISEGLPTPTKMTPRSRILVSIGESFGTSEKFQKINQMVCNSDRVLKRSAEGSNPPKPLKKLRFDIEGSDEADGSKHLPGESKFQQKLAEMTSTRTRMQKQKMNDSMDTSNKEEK


Legend:
[1] = biological target: T2, E2F DNA binding activity of DP-1/E2F-1 heterodimer (Homo sapiens, UniProt Q01094); experiment: DP-1/E2F-1 DNA binding assay (gel retardation, bacterial fusion proteins); format: biochemical; conditions: peptide titrated 1, 0.5, 0.1, 0.01 nmol
T2 construct: GST (N); made in house; host or cells: bacterial
Text: Since the peptides function as antagonists of the formation of the DP/E2F heterodimer, we reasoned that they may also interfere with E2F DNA binding activity. To address this question, we determined whether the E2F DNA binding activity created in vitro from combining bacterial DP and E2F fusion proteins was affected by the peptides.
As previously shown, the interaction between DP-1 and E2F-1 leads to co-operative DNA binding activity. Peptide H (SEQ ID NO:1) was titrated into the DP-1/E2F-1 DNA binding assay, using 1 nmol, 0.5 nmol, 0.1 nmol and 0.01 nmol of peptide.
(§1) Gel retardation was performed using 5 to 10 μg of either F9 EC or JM cell extract with either an E2F or ATF site as previously described (15). Where fusion proteins were used, about 25 ng of either DP-1 or E2F-1 were used in each binding assay. For in vitro translates, about 6 μl of the translation mix was used in each binding assay. Gel retardation with an E2F binding site taken from the adenovirus E2a promoter was as previously described (15).

DP-1/E2F-1 heterodimer = biological target: T3, DP-1/E2F-1 heterodimer (Homo sapiens, UniProt Q01094); experiment: binding assay: GST-E2F-1 fusion protein bound to in vitro translated DP-1, peptide competition; conditions: peptide included in binding reaction
T3 construct: GST (N); made in house; DP-1 made by in vitro translation
Text: To determine the influence of the DEF box region upon the formation of the DP-1/E2F heterodimer, we used a binding assay in which E2F-1, expressed as a GST-E2F-1 fusion protein, bound to in vitro translated DP-1, an assay used previously to measure dimerization between DP and E2F proteins (31,32). Peptides were included in the binding reaction and their ability to compete with wild-type DP-1 for E2F-1 assessed by the amount of DP-1 which remained bound to the E2F-1 fusion protein.
(§2) GST-E2F-1, E2F-2, E2F-3 and pRb have been described previously (27,31,32) and were purified to homogeneity using glutathione Sepharose. In vitro translated DP-1, DP-1^172/173, E2F-1 and E1a were translated as described previously (27,31,32).
as §1

[2] = biological target: T1, pRb / adenovirus E1a protein interaction; experiment: specificity control: binding of pRb to in vitro translated adenovirus E1a protein; conditions: unrelated protein-protein interaction control
Procedure: To evaluate the specificity of this effect, we undertook two controls. Firstly, the effect of DEF box derived peptides on an unrelated but well characterised protein-protein interaction was assessed, namely the binding of pRb to the adenovirus E1a protein (34). The E1a protein, when provided in the assay as an in vitro translate, specifically bound to pRb. […] Secondly, unrelated peptides representing other regions of DP-1 or subdomains of peptide H were assessed in the binding reaction. […] Overall, the results argue that peptide H antagonises the interaction between DP-1 and E2F-1 in the formation of a heterodimer.
as §2

ATF DNA binding activity = experiment: gel retardation, ATF site (specificity control); format: biochemical; conditions: similar conditions as E2F assay
Procedure: (§3) In a similar fashion to its effect upon the in vitro formed activity, the physiological DNA binding activity in F9 EC cell extracts was inactivated upon titration of peptide H (using the same concentrations mentioned above), but not by H1. This effect was specific for E2F since no effect on the unrelated DNA binding activity ATF was observed under similar conditions.
as §1

DP-1/E2F-3 heterodimer = biological target: T4, DP-1/E2F-3 heterodimer (Homo sapiens, UniProt O00716); experiment: binding assay: GST-E2F-3 bound to in vitro translated DP-1; conditions: peptide 5 nmol, 1 nmol, 100 pmol
T4 construct: GST (N); made in house; host or cells: GST fusion purified on glutathione Sepharose; DP-1 made by in vitro translation
Text: (§4) FIG. 2 illustrates that peptides containing DEF box sequence prevent DP-1 forming a heterodimer with E2F family members. The ability of in vitro translated DP-1 (indicated by bracket) to bind to GST-E2F-1 (tracks 1,2,3 and 4), GST-E2F-2 (5,6,7 and 8) or GST-E2F-3 (9,10,11 and 12) in the absence (tracks 1,5 and 9) or presence of decreasing levels of peptide H (5 nmol; tracks 2,6 and 10; 1 nmol tracks 3,7 and 11 or 100 pmol tracks 4,8 and 12).
(§5) In the second, the activity of the DEF box antagonist peptide H was assessed on heterodimers formed between DP-1 and the other E2F family members, E2F-2 and E2F-3, which show high conservation with E2F-1 across the DEF box. […] We conclude therefore that peptides representing sequence derived from the DEF box function as specific antagonists of the DP-1/E2F heterodimer.
as §2

DP-1/E2F-2 heterodimer = biological target: T5, DP-1/E2F-2 heterodimer (Homo sapiens, UniProt Q14209); experiment: binding assay: GST-E2F-2 bound to in vitro translated DP-1; conditions: peptide 5 nmol, 1 nmol, 100 pmol
T5 construct: GST (N); made in house; host or cells: GST fusion purified on glutathione Sepharose; DP-1 made by in vitro translation
Text: as §4, §5, §2

[3] = test system: physiological E2F DNA binding activity (DP-1/E2F heterodimer) in F9 embryonal carcinoma cell extracts; experiment: gel retardation, E2F site, F9 EC cell extracts; format: biochemical; conditions: for inactivation of E2F DNA binding activity in F9 EC cell extracts: F9 EC cell extract, peptide up to 1 nmol
Text: Because the DEF box peptides can antagonise DNA binding activity of the DP-1/E2F heterodimer formed in vitro, we went on to establish their effects on physiological E2F. For this experiment, we used extracts prepared from F9 embryonal carcinoma (EC) cells, since these cells contain high levels of endogenous E2F DNA binding activity as a DP-1/E2F-heterodimer (26).
as §3, §1

[4] = test system: E2F site-dependent transcription; experiment: yeast E2F binding site reporter assay (p4xWT.CYC1); format: cell-based; conditions: A172 and L173 changed to glycine
Text: (§6) To study the role of the DEF box region in the context of the wild-type DP-1 protein, we took advantage of a yeast assay previously used to assess the properties of the DP-1/E2F heterodimer (23,31). When assayed in the context of two-hybrid proteins, with DP-1 is fused the LexA DNA binding domain and E2F-1 to the transcriptional activation domain of GAL4, transcriptional stimulation of a reporter construct driven by LEXA DNA binding sites was apparent only when both proteins were expressed together. Similarly, transcriptional activation of a reporter gene driven by physiological E2F DNA binding sites, in p4xWT.CYC1 (23,31), was dependent upon the presence of both proteins.
(§7) The yeast two-hybrid expression plasmids used were PLEX(HIS) which contains the complete LexA coding sequence, pGAD.L6 which contains the Gal 4 transcription activation domain. pLEX(HIS).DP-1 contains the murine DP-1 fused to the C-terminus of the LexA coding sequence and GAD.E2F-1 the human E2F-1 downstream of the Gal4 activation domain; all constructs were as described previously (23,31), apart from pLEX-DP-1/MT which contained DP-1 with residues 172 and 173 altered to glycine residues. Yeast strain CTY10-5d was used for the two-hybrid assay and W3031a, which carries p4xWT.CYC 1, for the E2F site-dependent transcription assay (23,31).

DP-1/E2F-1 interaction = biological target: T6, DP-1/E2F-1 interaction (UniProt Q01094+Q08639, A172G/L173G); experiment: yeast two-hybrid assay LexA-DP-1 / GAL4 activation domain-E2F-1; format: cell-based; conditions: A172 and L173 changed to glycine
T6 construct: expressed in transfected cells; host or cells: yeast strain CTY10-5d
Text: as §6, §7

T3 sequence (Q01094 whole entry, the tested form may be a part, one chain of several): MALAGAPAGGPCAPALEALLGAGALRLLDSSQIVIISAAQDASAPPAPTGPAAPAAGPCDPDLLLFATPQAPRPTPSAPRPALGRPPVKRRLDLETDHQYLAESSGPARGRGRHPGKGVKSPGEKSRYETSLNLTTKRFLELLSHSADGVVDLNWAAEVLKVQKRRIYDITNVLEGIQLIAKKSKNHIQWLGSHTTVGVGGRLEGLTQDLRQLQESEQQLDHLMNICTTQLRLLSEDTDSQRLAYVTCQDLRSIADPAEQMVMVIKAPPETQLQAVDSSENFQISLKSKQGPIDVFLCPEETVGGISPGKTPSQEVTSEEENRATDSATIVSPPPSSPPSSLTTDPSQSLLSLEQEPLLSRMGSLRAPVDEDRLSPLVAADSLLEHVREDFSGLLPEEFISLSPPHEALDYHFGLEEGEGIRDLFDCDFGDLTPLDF
T2 sequence (Q01094 whole entry, the tested form may be a part, one chain of several): as above
T5 sequence (Q14209 whole entry, the tested form may be a part, one chain of several): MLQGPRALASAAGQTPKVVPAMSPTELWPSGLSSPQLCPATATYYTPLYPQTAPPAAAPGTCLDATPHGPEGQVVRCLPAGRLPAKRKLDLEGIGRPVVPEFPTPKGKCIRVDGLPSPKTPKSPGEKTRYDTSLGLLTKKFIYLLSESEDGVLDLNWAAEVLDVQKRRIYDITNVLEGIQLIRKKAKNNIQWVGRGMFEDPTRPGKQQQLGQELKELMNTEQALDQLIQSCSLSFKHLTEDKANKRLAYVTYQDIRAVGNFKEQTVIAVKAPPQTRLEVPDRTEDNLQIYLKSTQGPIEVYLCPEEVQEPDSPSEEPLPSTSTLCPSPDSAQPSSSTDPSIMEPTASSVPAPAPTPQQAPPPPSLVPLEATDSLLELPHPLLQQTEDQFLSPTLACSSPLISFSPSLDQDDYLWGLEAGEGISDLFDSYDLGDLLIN
T4 sequence (O00716 whole entry, the tested form may be a part, one chain of several): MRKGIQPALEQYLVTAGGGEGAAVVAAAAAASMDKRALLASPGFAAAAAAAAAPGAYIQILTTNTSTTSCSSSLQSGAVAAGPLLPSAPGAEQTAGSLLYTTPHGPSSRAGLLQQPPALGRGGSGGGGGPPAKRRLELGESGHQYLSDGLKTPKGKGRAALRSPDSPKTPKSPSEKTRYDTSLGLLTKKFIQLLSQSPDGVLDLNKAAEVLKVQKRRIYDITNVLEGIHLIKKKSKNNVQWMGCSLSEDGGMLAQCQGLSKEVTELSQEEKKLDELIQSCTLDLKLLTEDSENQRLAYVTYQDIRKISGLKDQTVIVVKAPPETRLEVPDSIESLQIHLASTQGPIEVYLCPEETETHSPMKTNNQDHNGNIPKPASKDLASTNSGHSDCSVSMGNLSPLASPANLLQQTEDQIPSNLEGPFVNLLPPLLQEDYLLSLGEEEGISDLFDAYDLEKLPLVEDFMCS
T6 sequence (Q01094 whole entry, the tested form may be a part): as the sequence (Q01094 whole entry, the tested form may be a part, one chain of several) above
T6 sequence (Q08639 whole entry A172G/L173G, the tested form may be a part): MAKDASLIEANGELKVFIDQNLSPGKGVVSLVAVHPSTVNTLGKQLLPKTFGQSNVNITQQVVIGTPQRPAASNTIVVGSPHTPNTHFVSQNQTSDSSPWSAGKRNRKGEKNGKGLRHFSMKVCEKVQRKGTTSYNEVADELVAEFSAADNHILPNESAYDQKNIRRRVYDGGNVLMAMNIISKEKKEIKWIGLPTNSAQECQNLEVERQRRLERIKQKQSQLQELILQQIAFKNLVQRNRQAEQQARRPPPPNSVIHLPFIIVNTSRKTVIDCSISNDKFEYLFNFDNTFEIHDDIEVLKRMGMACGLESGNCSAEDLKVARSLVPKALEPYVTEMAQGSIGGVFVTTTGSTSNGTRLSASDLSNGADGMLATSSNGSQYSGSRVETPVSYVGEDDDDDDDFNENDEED

Molecule | inhibition of DP-1/E2F-1 DNA binding activity [1] | effect on binding of DP-1 to E2F-1 (formation of DP-1/E2F-1 heterodimer) (DP-1/E2F-1 heterodimer) | inactivation of E2F DNA binding activity in F9 EC cell extracts [3] | also measured
Peptide 18: contains the N-terminal sequence taken from the DEF homology region (NESAYDQKNIRR) [reference compound] | did not interfere with DNA binding activity | failed to have any noticeable effect |  | 
RVYDALNVLMAMNIIS [Peptide H5, 16 residues within H2] | lower activity compared to H2 and H7 | retained antagonistic activity |  | 
KNIRRRVYDALNVLMAMNIISKEKKEIKWIGLPTNSA [Peptide H, complete DEF box region, residues 163 to 199 of DP-1, 37 residues] | Clear inhibition of DNA binding activity | interfere with the binding efficiency of DP-1 and E2F-1 | inactivated | effect on binding of pRb to E1a [2]: no apparent effect; effect on ATF DNA binding activity (ATF DNA binding activity): no effect; effect on ability of E2F-3 to bind to DP-1 (DP-1/E2F-3 heterodimer): interfered specifically; effect on ability of E2F-2 to bind to DP-1 (DP-1/E2F-2 heterodimer): interfered specifically; sensitivity of pocket protein-E2F complex relative to free E2F heterodimer ([3]; slower migrating E2F complex): less sensitive
H1: peptide derived from the DEF box region which failed to affect heterodimer formation (RRRVYDALNVL) [Peptide H1] | did not interfere with DNA binding activity | failed to affect formation of the DP-1/E2F-1 heterodimer | not | 
15: DP-1 peptide taken from DCB1, C-terminal side of the DEF homology region (NLVQRNRQAEQQARR) [Peptide 15, reference compound] | did not interfere with DNA binding activity | failed to have any noticeable effect |  | 
RARVYAALNVLMAMNIISK [Peptide H2mt2, mutant H2 peptide] |  |  | retained some activity, but less than wild-type H2 | 
17: DP-1 peptide taken from DCB1, C-terminal side of the DEF homology region (EVERQRRLERIKQKQ) [Peptide 17, reference compound] | did not interfere with DNA binding activity | failed to have any noticeable effect |  | 
H6: shorter DEF box peptide lacking activity (RRVYDALNVLMAMN) [Peptide H6] | did not interfere with DNA binding activity | lacked activity; also recorded: failed to affect formation of the DP-1/E2F-1 heterodimer |  | 
RRRAYDALNALMAMNIISK [Peptide H2mt1, mutant H2 peptide, V169 and V175 altered] |  |  | inactivated the E2F site DNA binding activity in F9 EC cell extracts with similar efficiency | 
NVLMAMNIISKEKKEIKWIG [Peptide H3] | lower activity compared to H2 and H7 |  |  | 
DP-1^172/173: mutant DP-1 protein with residues A172 and L173 changed to glycine (protein, UniProt Q14186 1-410, looked up, variant A172G L173G) Transcription factor Dp-1: MAKDAGLIEANGELKVFIDQNLSPGKGVVSLVAVHPSTVNPLGKQLLPKTFGQSNVNIAQQVVIGTPQRPAASNTLVVGSPHTPSTHFASQNQPSDSSPWSAGKRNRKGEKNGKGLRHFSMKVCEKVQRKGTTSYNEVADELVAEFSAADNHILPNESAYDQKNIRRRVYDGGNVLMAMNIISKEKKEIKWIGLPTNSAQECQNLEVERQRRLERIKQKQSQLQELILQQIAFKNLVQRNRHAEQQASRPPPPNSVIHLPFIIVNTSKKTVIDCSISNDKFEYLFNFDNTFEIHDDIEVLKRMGMACGLESGSCSAEDLKMARSLVPKALEPYVTEMAQGTVGGVFITTAGSTSNGTRFSASDLTNGADGMLATSSNGSQYSGSRVETPVSYVGEDDEEDDDFNENDEDD |  |  |  | reduction of response of E2F binding site reporter [4]: about 50%; reduction of activity relative to wild-type DP-1 in two-hybrid assay (DP-1/E2F-1 interaction): about 50%
